Assay results as given in IntAct's records for PubMed 18566586.

B1: RAC-alpha serine/threonine-protein kinase (Mus musculus), P31750 (parent)
chain: MNDVAIVKEGWLHKRGEYIKTWRPRYFLLKNDGTFIGYKERPQDVDQRESPLNNFSVAQCQLMKTERPRPNTFIIRCLQWTTVIERTFHVETPEEREEWATAIQTVADGLKRQEEETMDFRSGSPSDNSGAEEMEVSLAKPKHRVTMNEFEYLKLLGKGTFGKVILVKEKATGRYYAMKILKKEVIVAKDEVAHTLTENRVLQNSRHPFLTALKYSFQTHDRLCFVMEYANGGELFFHLSRERVFSEDRARFYGAEIVSALDYLHSEKNVVYRDLKLENLMLDKDGHIKITDFGLCKEGIKDGATMKTFCGTPEYLAPEVLEDNDYGRAVDWWGLGVVMYEMMCGRLPFYNQDHEKLFELILMEEIRFPRTLGPEAKSLLSGLLKKDPTQRLGGGSEDAKEIMQHRFFANIVWQDVYEKKLSPPFKPQVTSETDTRYFDEEFTAQMITITPPDQDDSMECVDSERRPHFPQFSYSASGTA

Variants of: B1
Details: with hs90a_mouse Hsp90aa1, P07901

| Variant | effect of a mutation on the interaction |
| --- | --- |
| T443A | increasing interaction |

Variants of: B1
Details: with hs90a_mouse Hsp90aa1, P07901
Remark: another data set of the same source

| Variant | effect of a mutation on the interaction |
| --- | --- |
| R222M | increasing interaction |
| K182M | increasing interaction |

Variants of: B1
Details: with hs90a_mouse Hsp90aa1, P07901
Remark: another data set of the same source

| Variant | effect of a mutation on the interaction |
| --- | --- |
| T450A | increasing interaction |

Variants of: B1
Details: with hs90a_mouse Hsp90aa1, P07901
Remark: another data set of the same source

| Variant | effect of a mutation on the interaction |
| --- | --- |
| K163M | increasing interaction |
